# Experimental data reported in US20220105163A1.
# B1: ALD518 (antibody, INN chains, looked up, V domains shown)
# VH: EVQLVESGGGLVQPGGSLRLSCAASGFSLSNYYVTWVRQAPGKGLEWVGIIYGSDETAYATSAIGRFTISRDNSKNTLYLQMNSLRAEDTAVYYCARDDSSDWDAKFNLWGQGTLVTVSS
# VL: AIQMTQSPSSLSASVGDRVTITCQASQSINNELSWYQQKPGKAPKLLIYRASTLASGVPSRFSGSGSGTDFTLTISSLQPDDFATYYCQQGYSLRNIDNAFGGGTKVEIK
# Molecular target: Recombinant human IL-6 (human) (UniProt P05231)
# Test: cell-based or functional assay
# Sequence of Recombinant human IL-6 (human) (P05231 30-212 limits assumed): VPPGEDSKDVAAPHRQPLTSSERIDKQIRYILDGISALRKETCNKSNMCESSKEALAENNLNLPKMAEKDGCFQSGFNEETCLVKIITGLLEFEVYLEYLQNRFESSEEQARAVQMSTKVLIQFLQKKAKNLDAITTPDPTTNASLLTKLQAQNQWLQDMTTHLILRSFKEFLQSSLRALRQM
binder,measurement,value
B1,"IC50 (µg/mL), IL-6 induced TF-1 proliferation",0.629 µg/mL
